Source: the supplement of paper PMC9112550, “Optimization of the antimicrobial peptide Bac7 by deep mutational scanning” (BMC Biology, 2022)

System: Escherichia coli TOP10
Assay: shrunken log2 fold change of peptide-encoding DNA abundance (4.5 h post-induction vs induction); higher = less antimicrobial activity (less host growth inhibition)
Conditions: time post-induction: 4.5 h; library: site-saturation at positions 5, 18, 19, 20
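Note: peptides expressed intracellularly from a pBAD plasmid library in pooled LB shake-flask culture, induced with 0.3% L-arabinose, DNA abundance read by NGS, three biological replicates, DESeq2 with apeglm shrinkage.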

Sequence	shrunken log2 fold change
RRIRTRPPRLPRPRPRPDGDPRP	0.052
RRIRCRPPRLPRPRPRPRRFPRP	0.338
RRIRWRPPRLPRPRPRPRTPPRP	0.559
RRIRDRPPRLPRPRPRPHGQPRP	0.237
RRIRCRPPRLPRPRPRPVEHPRP	0.0272
RRIRDRPPRLPRPRPRPTNFPRP	-0.208
RRIRWRPPRLPRPRPRPGDLPRP	0.0106
RRIRRRPPRLPRPRPRPGHEPRP	0.00414
RRIRLRPPRLPRPRPRPCAPPRP	0.00325
RRIRSRPPRLPRPRPRPSVTPRP	-0.171
RRIRVRPPRLPRPRPRPRNHPRP	0.0133
RRIRLRPPRLPRPRPRPEHSPRP	-0.0185
RRIRSRPPRLPRPRPRPGKQPRP	0.00846
RRIRGRPPRLPRPRPRPVIRPRP	0.177
RRIRLRPPRLPRPRPRPQCVPRP	0.0615
RRIRYRPPRLPRPRPRPKIDPRP	-0.344
RRIRHRPPRLPRPRPRPSHIPRP	-0.307
RRIRGRPPRLPRPRPRPLRYPRP	0.688
RRIRIRPPRLPRPRPRPGNMPRP	-0.105
RRIRLRPPRLPRPRPRPNEYPRP	-0.321
RRIRSRPPRLPRPRPRPLATPRP	0.627
RRIRVRPPRLPRPRPRPKMMPRP	-0.313
RRIRKRPPRLPRPRPRPFPNPRP	0.0546
RRIRCRPPRLPRPRPRPDNMPRP	-1.31
RRIRDRPPRLPRPRPRPRDYPRP	0.0389

Sequence	shrunken log2 fold change
RRIRSRPPRLPRPRPRPKEGPRP	-0.0287
RRIRGRPPRLPRPRPRPLVSPRP	0.355
RRIRPRPPRLPRPRPRPGPVPRP	0.258
RRIRARPPRLPRPRPRPDLPPRP	0.311
RRIRARPPRLPRPRPRPCRCPRP	0.0187
RRIRCRPPRLPRPRPRPFDAPRP	0.0524
RRIRDRPPRLPRPRPRPFCTPRP	-0.0992
RRIRLRPPRLPRPRPRPHEQPRP	0.00509
RRIRERPPRLPRPRPRPVWIPRP	-0.556
RRIRCRPPRLPRPRPRPCVNPRP	-0.106
RRIRTRPPRLPRPRPRPHDSPRP	-0.229
RRIRSRPPRLPRPRPRPVWCPRP	0.143
RRIRARPPRLPRPRPRPKYRPRP	-0.118
RRIRMRPPRLPRPRPRPAYKPRP	0.0601
RRIRCRPPRLPRPRPRPMKVPRP	-0.126
RRIRFRPPRLPRPRPRPHVGPRP	-0.224
RRIRIRPPRLPRPRPRPMNAPRP	-0.0262
RRIRTRPPRLPRPRPRPDLAPRP	0.132
RRIRGRPPRLPRPRPRPCTTPRP	0.141
RRIRRRPPRLPRPRPRPLATPRP	0.882
RRIRQRPPRLPRPRPRPFCGPRP	0.0215
RRIRQRPPRLPRPRPRPGCTPRP	-0.269
RRIRRRPPRLPRPRPRPETRPRP	0.644
RRIRCRPPRLPRPRPRPPLQPRP	0.228
RRIRYRPPRLPRPRPRPHSKPRP	-0.463

Sequence	shrunken log2 fold change
RRIRMRPPRLPRPRPRPVVNPRP	0.0747
RRIRIRPPRLPRPRPRPTQFPRP	0.000325
RRIRVRPPRLPRPRPRPSCSPRP	-0.338
RRIRVRPPRLPRPRPRPTYSPRP	-0.0431
RRIRVRPPRLPRPRPRPWVWPRP	0.292
RRIRARPPRLPRPRPRPALIPRP	0.379
RRIRSRPPRLPRPRPRPVYFPRP	-0.347
RRIRDRPPRLPRPRPRPMKRPRP	0.108
RRIRPRPPRLPRPRPRPCQRPRP	-0.144
RRIRWRPPRLPRPRPRPRYGPRP	0.134
RRIRARPPRLPRPRPRPHLRPRP	0.325
RRIRHRPPRLPRPRPRPSSRPRP	-0.175
RRIRQRPPRLPRPRPRPNSDPRP	-0.594
RRIRYRPPRLPRPRPRPHFMPRP	-0.0918
RRIRPRPPRLPRPRPRPNMWPRP	-0.084
RRIRDRPPRLPRPRPRPRANPRP	0.567
RRIRNRPPRLPRPRPRPWTGPRP	-0.0655
RRIRFRPPRLPRPRPRPGDEPRP	0.0387
RRIRERPPRLPRPRPRPSGKPRP	-0.119
RRIRERPPRLPRPRPRPVGYPRP	0.161
RRIRYRPPRLPRPRPRPCWHPRP	-0.0701
RRIRGRPPRLPRPRPRPKDGPRP	0.798
RRIRERPPRLPRPRPRPQTDPRP	-0.323
RRIRKRPPRLPRPRPRPLYVPRP	0.0738
RRIRHRPPRLPRPRPRPTMHPRP	-0.0232

Sequence	shrunken log2 fold change
RRIRDRPPRLPRPRPRPMNDPRP	-0.126
RRIRFRPPRLPRPRPRPSTHPRP	-0.569
RRIRMRPPRLPRPRPRPRWPPRP	1.06
RRIRWRPPRLPRPRPRPRSGPRP	0.345
RRIRNRPPRLPRPRPRPWHSPRP	-0.496
RRIRDRPPRLPRPRPRPYYQPRP	-1.03
RRIRHRPPRLPRPRPRPIRTPRP	-0.0747
RRIRHRPPRLPRPRPRPVGSPRP	0.145
RRIRDRPPRLPRPRPRPKCEPRP	-0.351
RRIRERPPRLPRPRPRPRYFPRP	-0.54
RRIRRRPPRLPRPRPRPYEPPRP	-0.846
RRIRCRPPRLPRPRPRPDDKPRP	-0.739
RRIRARPPRLPRPRPRPDLRPRP	0.0309
RRIRGRPPRLPRPRPRPFPQPRP	0.717
RRIRWRPPRLPRPRPRPVTYPRP	0.186
RRIRCRPPRLPRPRPRPVLIPRP	-0.414
RRIRLRPPRLPRPRPRPPSGPRP	0.0718
RRIRVRPPRLPRPRPRPYGVPRP	-0.153
RRIRSRPPRLPRPRPRPISLPRP	1.99
RRIRKRPPRLPRPRPRPHEAPRP	-0.022
RRIRYRPPRLPRPRPRPTDMPRP	0.00219
RRIRLRPPRLPRPRPRPEALPRP	-0.00171
RRIRPRPPRLPRPRPRPSNMPRP	-0.884
RRIRRRPPRLPRPRPRPGQSPRP	0.155
RRIRFRPPRLPRPRPRPWHIPRP	-0.213

Sequence	shrunken log2 fold change
RRIRNRPPRLPRPRPRPGPHPRP	0.0143
RRIRDRPPRLPRPRPRPIFDPRP	0.0515
RRIRNRPPRLPRPRPRPRRMPRP	0.207
RRIRSRPPRLPRPRPRPYCIPRP	-0.26
RRIRWRPPRLPRPRPRPDHIPRP	-0.0546
RRIRGRPPRLPRPRPRPVMWPRP	0.932
RRIRARPPRLPRPRPRPSWGPRP	0.0646
RRIRHRPPRLPRPRPRPWAGPRP	-0.15
RRIRLRPPRLPRPRPRPEWFPRP	0.161
RRIRMRPPRLPRPRPRPEHMPRP	0.147
RRIRQRPPRLPRPRPRPTHFPRP	-0.0245
RRIRYRPPRLPRPRPRPARKPRP	-0.486
RRIRTRPPRLPRPRPRPSSFPRP	-0.284
RRIRMRPPRLPRPRPRPQGKPRP	-0.0118
RRIRPRPPRLPRPRPRPPNIPRP	-0.414
RRIRMRPPRLPRPRPRPEIWPRP	1.2
RRIRSRPPRLPRPRPRPMDLPRP	0.0372
RRIRWRPPRLPRPRPRPWQHPRP	-0.0883
RRIRVRPPRLPRPRPRPHFWPRP	-0.158
RRIRRRPPRLPRPRPRPSFTPRP	0.0475
RRIRQRPPRLPRPRPRPNWGPRP	0.105
RRIRKRPPRLPRPRPRPKGHPRP	0.123
RRIRWRPPRLPRPRPRPPQDPRP	0.267
RRIRGRPPRLPRPRPRPDEPPRP	1.37
RRIRTRPPRLPRPRPRPGCTPRP	-0.0907

Sequence	shrunken log2 fold change
RRIRMRPPRLPRPRPRPNTEPRP	-0.0533
RRIRCRPPRLPRPRPRPNSPPRP	-0.217
RRIRDRPPRLPRPRPRPLPYPRP	-0.0311
RRIRTRPPRLPRPRPRPLWGPRP	-0.0731
RRIRLRPPRLPRPRPRPPCYPRP	0.00883
RRIRQRPPRLPRPRPRPMGSPRP	-0.0869
RRIRFRPPRLPRPRPRPQQTPRP	-0.0409
RRIRMRPPRLPRPRPRPEKGPRP	-0.0013
RRIRERPPRLPRPRPRPRGAPRP	0.59
RRIRYRPPRLPRPRPRPVGRPRP	0.0286
RRIRARPPRLPRPRPRPGKAPRP	0.266
RRIRWRPPRLPRPRPRPYLLPRP	-0.508
RRIRERPPRLPRPRPRPTGSPRP	-0.211
RRIRIRPPRLPRPRPRPQIQPRP	-0.235
RRIRWRPPRLPRPRPRPDMKPRP	0.0231
RRIRERPPRLPRPRPRPGSMPRP	-0.343
RRIRQRPPRLPRPRPRPLLDPRP	0.525
RRIRHRPPRLPRPRPRPCPHPRP	-0.0102
RRIRSRPPRLPRPRPRPQYLPRP	-0.683
RRIRARPPRLPRPRPRPCKCPRP	-0.0835
RRIRPRPPRLPRPRPRPDIVPRP	-0.0822
RRIRCRPPRLPRPRPRPRCNPRP	0.00442
RRIRMRPPRLPRPRPRPDKDPRP	1.24
RRIRPRPPRLPRPRPRPHGRPRP	-0.0223
RRIRVRPPRLPRPRPRPRNSPRP	0.1
